The values that follow come from CN113354737A (GUANGZHOU EXCELMAB BIOMEDICAL TECH CO LTD, dated 2021).

Common to all, as to experiment: ELISA, coated antigen, HRP anti-human IgG
(ELISA stands for enzyme-linked immunosorbent assay.)

For assay [1], the target named is T1, 重组人GPC3近膜端抗原 (human, UniProt P51654 524-563).
T1 construct: range 524-563
T1 chain (looked up): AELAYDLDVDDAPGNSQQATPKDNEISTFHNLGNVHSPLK

In a further assay the target is T2, 重组人GPC3胞外区抗原 (human, UniProt P51654 25-559, limits assumed).
T2 construct: extracellular domain

In assay [2] the target is T1, 重组人GPC3近膜端抗原.
In assay [3] the target is T1, 重组人GPC3近膜端抗原.

Like-named read-outs stand apart in the source and are kept apart here.

T2 sequence (P51654 25-559 limits assumed): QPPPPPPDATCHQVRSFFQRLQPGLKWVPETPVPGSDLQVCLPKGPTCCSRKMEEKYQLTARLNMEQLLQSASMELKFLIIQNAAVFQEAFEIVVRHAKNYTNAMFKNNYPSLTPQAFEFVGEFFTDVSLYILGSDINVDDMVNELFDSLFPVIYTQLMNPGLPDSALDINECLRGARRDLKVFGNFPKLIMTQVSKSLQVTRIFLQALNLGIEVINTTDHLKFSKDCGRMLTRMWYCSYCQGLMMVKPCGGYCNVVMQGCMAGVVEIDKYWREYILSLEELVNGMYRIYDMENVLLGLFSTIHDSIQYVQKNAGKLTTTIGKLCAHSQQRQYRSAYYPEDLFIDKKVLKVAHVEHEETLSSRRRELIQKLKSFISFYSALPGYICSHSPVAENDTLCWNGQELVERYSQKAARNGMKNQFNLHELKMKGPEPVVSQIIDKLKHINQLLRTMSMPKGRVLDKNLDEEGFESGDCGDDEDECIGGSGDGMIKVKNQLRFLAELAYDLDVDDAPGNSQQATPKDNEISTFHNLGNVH

The EC50 is the concentration needed to bring the measured effect to its halfway point. Read a high EC50 as lower potency in that assay. As for GC33单抗模拟物 (antibody), the concentration giving a half-maximal response (EC50) with 重组人GPC3近膜端抗原 [1] came out at 0.063 µg/mL.

B1: 人源GPC3抗体10C7 (antibody, V domains shown)
VH: QVQLVQSGAEVKKPGASVKLSCKASGYTFTDYEMHWVKQTPGKGLKWIGALDPKTGDTAYAQKFQGRATLTADTSTDTAYMELSSLRSEDSAVYYCTRFYSYTYWGQGTLVTVSS
VL: DIVLTQSPLSLTVTPGEPASISCRSSESLVHSNGNTYLSWLQQRPGQPPRLLIYKISNRFSGVPDRFSGSGAGTDFTLKISRVEAEDVGVYYCTQATQFPYTFGQGTKVEIK
notes: also called 抗人GPC3抗体10C7
As to B1, the EC50 was 0.0836 µg/mL with 重组人GPC3胞外区抗原, 0.0279 µg/mL with 重组人GPC3近膜端抗原 [2] and 0.141 µg/mL with 重组人GPC3近膜端抗原 [3].

B2: 亲和力成熟变体5E11 (antibody, V domains shown)
VH: QVQLKQSGAELMKPGASVKISCKATGYTFSRYWIEWVKQRPGHGLEWIGEILPGSGSTSYNEKFKGKATFTADTSSNTAYMQLSSLTSEDSAVYYCARSARATYYFDYWGQGTTLTVSS
VL: DIQMTQTTSSLSASLGDRVTISCWASQDISNYLNWYQQKPDGTVKLLIYYTSTLHSGVPSRFSGSGSGTDYSLTISNLEQEDIATYFCQQGNALPYTFGGGTKLEIK
As to B2, it took 0.12 µg/mL to reach a half-maximal effect in the assay with 重组人GPC3近膜端抗原 [3] (EC50).

B3: 亲和力成熟变体7C6 (antibody, V domains shown)
VH: QVQLQQPGAELVKPGASVKLSCKASGYTFTTYYMYWVKQRPGQGLEWIGEINPSNGGTNFNEKFKSKATLTVDKSSSTAYMQLSSLTSEDSAVYYCTTFAYWGQGTLVTVSA
VL: DIVMTQSPSSLSASLGGKVTITCKASQDINKYIVWYQHKPGKGPRLLIHYTSILQPGIPSRFSGSGSGRDYSFSISNLEPEDIATYYCLQYDNLWTFGGGTKLEIK
In the assay with 重组人GPC3近膜端抗原 [3], B3 came in with a 50% effective concentration (EC50) of 0.0428 µg/mL.

B4: 亲和力成熟变体5A5 (antibody, V domains shown)
VH: QVQLQQSGTELVRPGASVKLSCKALGYTFTDYEMHWVKQTPVHGLEWIGAIHPGSGDTAYNQRFKGKATLTADKSSSTAYMEYSSLTSEDSAVYYCTRFYSYAYWGQGTLVTVSA
VL: DVVMTQTPLSLPVSLGDQASISCRSSQSLVHSNGNTYLQWYLQKPGQSPKLLIYKVSNRFSGVPDRFSGRGSGTDFTLKISRVEAEDLGVYFCSQSIYVPYTFGGGTKLEIK
For the molecule B4, the half-maximal effective concentration (EC50) with 重组人GPC3近膜端抗原 [3] was 0.0951 µg/mL.
